These are literature values, as cited in paper PMC3648593.

Broadly, the Kd is the concentration at which binding is half-saturated.

The target in this data set is Met (Homo sapiens) (UniProt P08581).
Chain of UniProt P08581 (P08581 25-932): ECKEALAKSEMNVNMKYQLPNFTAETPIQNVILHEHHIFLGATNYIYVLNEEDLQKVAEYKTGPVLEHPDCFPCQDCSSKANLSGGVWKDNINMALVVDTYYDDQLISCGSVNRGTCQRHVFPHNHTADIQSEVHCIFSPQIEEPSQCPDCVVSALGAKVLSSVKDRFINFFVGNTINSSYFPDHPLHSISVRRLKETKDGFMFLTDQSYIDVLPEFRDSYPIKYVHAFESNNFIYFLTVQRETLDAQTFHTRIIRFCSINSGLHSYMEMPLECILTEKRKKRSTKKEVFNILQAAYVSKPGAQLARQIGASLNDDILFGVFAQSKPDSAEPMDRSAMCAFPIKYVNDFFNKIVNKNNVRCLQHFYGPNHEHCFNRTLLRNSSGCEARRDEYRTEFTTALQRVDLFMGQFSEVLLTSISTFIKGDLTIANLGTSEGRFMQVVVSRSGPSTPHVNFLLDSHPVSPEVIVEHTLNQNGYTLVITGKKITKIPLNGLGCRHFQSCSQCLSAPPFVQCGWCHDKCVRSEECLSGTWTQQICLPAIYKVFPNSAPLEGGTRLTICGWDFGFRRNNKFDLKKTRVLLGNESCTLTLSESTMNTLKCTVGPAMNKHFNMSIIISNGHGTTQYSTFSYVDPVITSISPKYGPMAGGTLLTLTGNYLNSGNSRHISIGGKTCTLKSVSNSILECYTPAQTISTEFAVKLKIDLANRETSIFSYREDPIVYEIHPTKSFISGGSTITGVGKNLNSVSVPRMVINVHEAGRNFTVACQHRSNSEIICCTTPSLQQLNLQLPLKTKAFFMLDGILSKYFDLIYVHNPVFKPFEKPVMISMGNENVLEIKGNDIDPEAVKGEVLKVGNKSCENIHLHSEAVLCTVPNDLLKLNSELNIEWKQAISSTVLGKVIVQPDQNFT

For the substance Decorin (from UniProt P07585), the Kd was 2 nM.
